Experimental data published in article PMC10714827.
Read-outs that look alike come from different tables or passages of the source. Values belong to the molecule of their own block, whether it stands above or below them.

Legend:
[1] = biological target: PII-like protein GlnK1 with N-terminal His tag (Methanosarcina mazei) (UniProt Q8PYW7); test: ITC; 20 µM GlnK1 in the cell titrated with 300 µM sP36; 100 mM potassium phosphate, 2 mM EDTA, pH 7.0, 25°C; model for a single ligand binding site
[2] = biological target: small protein 36 (sP36), untagged, purified from heterologous expression in E. coli (Methanosarcina mazei); test: SEC; analytical gel filtration, ENrich SEC 650; 0.5 mg untagged sP36 or 0.3 mg His6-sP36; eluted with 50 mM phosphate buffer (150 mM NaCl, pH 8.0), 1 mL/min; BioRad size-exclusion standard
[3] = biological target: His6-sP36 purified from homologous expression in M. mazei (Methanosarcina mazei); test: as above
[4] = biological target: small protein 36 (sP36), untagged, purified from heterologous expression in E. coli (Methanosarcina mazei); test: MST; RED-NHS-labelled untagged sP36 at 100 nM held constant (the methods say 10 nM for the AmtB1 series); AmtB1-His6 (12.5 µM to 0.38 nM) or His6-GlnK1 (7.5 µM to 0.23 nM) in 16 dilutions; concentrations on monomeric mass; standard capillaries, 100% excitation power, medium or high MST power; three biological replicates
[5] = biological target: small protein 36 (sP36), untagged, purified from heterologous expression in E. coli (Methanosarcina mazei); test: as above; remark: listed apart in the source

Kd [1]: 5400 nM
stoichiometry N (sP36 monomers per GlnK1 monomer) [1]: 2
stoichiometry N [2]: 6
Molecule: small protein 36 (sP36), untagged, purified from heterologous expression in E. coli (natural protein)

stoichiometry N [3]: 6
Molecule: His6-sP36 purified from homologous expression in M. mazei (natural protein)

Kd [4]: 260 nM
Molecule: ammonium transporter AmtB1 with C-terminal His6-tag (from UniProt Q8U4U2 1-397) (natural protein)

Kd [5]: 1800 nM
B1: PII-like protein GlnK1 with N-terminal His tag (natural protein)
chain: MVAMKYVIAMIRPERLDAVKRELQKIEVSRLTVSSVSGYGAQKGYMEIYRAMEYDANLLEKIKIEIAVNDEFLEPTIEAIKTGAKGSDGYVGSGKIFVLPLENVIRIRTNETGPEAI
